The chains are these.
T1: human ferroportin (SLC40A1) fused in frame with GFP, stably expressed in HEK293 cells (human, UniProt Q9NP59 1-571)
T1 sequence (looked up): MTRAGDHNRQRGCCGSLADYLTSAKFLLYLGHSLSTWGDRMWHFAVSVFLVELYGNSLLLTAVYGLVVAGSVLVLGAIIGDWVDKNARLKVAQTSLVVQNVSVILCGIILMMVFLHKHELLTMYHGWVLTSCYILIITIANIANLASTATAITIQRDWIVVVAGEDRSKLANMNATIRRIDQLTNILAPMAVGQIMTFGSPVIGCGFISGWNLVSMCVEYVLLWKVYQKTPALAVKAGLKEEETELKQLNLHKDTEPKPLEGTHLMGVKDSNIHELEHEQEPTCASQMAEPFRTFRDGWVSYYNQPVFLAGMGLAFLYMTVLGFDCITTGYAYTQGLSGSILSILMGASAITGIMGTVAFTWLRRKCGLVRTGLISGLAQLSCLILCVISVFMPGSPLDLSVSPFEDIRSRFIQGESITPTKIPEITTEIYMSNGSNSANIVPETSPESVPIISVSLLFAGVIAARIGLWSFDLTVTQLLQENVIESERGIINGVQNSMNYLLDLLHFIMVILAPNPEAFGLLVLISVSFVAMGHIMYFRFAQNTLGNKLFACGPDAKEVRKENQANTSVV

T2: human ferroportin (SLC40A1) fused in frame with GFP, stably expressed in HEK293 cells (human, UniProt Q9NP59 1-571)
T2 sequence (looked up): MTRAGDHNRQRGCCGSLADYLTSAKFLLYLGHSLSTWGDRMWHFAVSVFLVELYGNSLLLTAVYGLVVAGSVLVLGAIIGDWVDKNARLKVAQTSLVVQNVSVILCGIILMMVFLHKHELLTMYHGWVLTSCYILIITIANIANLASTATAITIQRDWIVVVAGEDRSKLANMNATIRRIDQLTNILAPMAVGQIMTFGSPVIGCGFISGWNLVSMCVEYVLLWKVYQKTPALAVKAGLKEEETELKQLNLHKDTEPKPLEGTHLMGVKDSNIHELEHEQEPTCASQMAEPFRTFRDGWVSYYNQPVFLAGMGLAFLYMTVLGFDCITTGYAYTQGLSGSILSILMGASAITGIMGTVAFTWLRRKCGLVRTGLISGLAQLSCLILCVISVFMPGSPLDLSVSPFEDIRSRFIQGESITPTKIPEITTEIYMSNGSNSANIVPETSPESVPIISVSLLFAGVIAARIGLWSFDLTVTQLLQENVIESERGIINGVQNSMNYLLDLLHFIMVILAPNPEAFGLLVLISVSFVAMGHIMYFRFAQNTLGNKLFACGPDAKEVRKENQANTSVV

B1: Compound 227 (peptide)
peptide: Isovaleryl-DTHFPCIKFEPK([dapa-Palmitoyl])SKGCK-NH2
modifications: not fully specified (bridges); cysteine pairing not given here; reading uncertain
B2: Compound 228 (peptide)
peptide: Isovaleryl-DTHFPCIKFEPRSK([dapa-Palmitoyl])GCK-NH2
modifications: not fully specified (bridges); cysteine pairing not given here; reading uncertain
B3: Compound 225 (peptide)
peptide: Isovaleryl-DTHFPCIK([dapa-Palmitoyl])FEPRSKGCK-NH2
modifications: not fully specified (bridges); cysteine pairing not given here; reading uncertain
B4: Compound 230 (peptide)
peptide: Isovaleryl-DTHFPCIKFEPRSKGCK([dapa-Palmitoyl])K-NH2
modifications: not fully specified (bridges); cysteine pairing not given here; reading uncertain
B5: Compound 224 (peptide)
peptide: DTHFPCIKFEPRSKGCKK
modifications: not fully specified; N-terminal isovaleric acid; K18(isoglu-Palm); C-terminal NH2
B6: Compound 241 (peptide)
peptide: DTHFPCIKFKPRSKGWECK
modifications: not fully specified; N-terminal isovaleric acid; K10(isoGlu-Palm); C-terminal NH2

Consider 32 molecules from patent US20250340608A1 (PROTAGONIST THERAPEUTICS, published 2025).

Numbered stars: 1 amine (or outer) side, 2 acyl side, 3 side chain; on linkers, the order of the positions; unused ones are H or OH. Side chains are listed from the residue outwards. * marks the point of attachment. γGlu = O=C(O)[C@H](CCC(=O)[*:2])N[*:1]; Palmitoyl = CCCCCCCCCCCCCCCC(=O)*; Isovaleryl = CC(C)CC(=O)*; dapa = not defined here Where only a bound is given, the exact number is not on record here.

One experiment concerns the target T1, human ferroportin (SLC40A1) fused in …. The experiment can be described thus: cell-based or functional assay.
As for H-ATHFPICIFGPRSKGWVCM-NH2 (cysteine pairing not given here) [Compound 33], the “Potency EC50” value is 184 nM.
As to H-DTHFPCIIFGPRSKGWVCM-NH2 (cysteine pairing not given here) [Compound 21], the “Potency EC50” value is 46 nM.
Same read-out and setting: to H-DTHFPCIFF-NH2 [Compound 56] belongs 441 nM.
Still for that read-out and setting: to H-DTHFPICIFGPASKGWVCM-NH2 (cysteine pairing not given here) [Compound 34] belongs 206 nM.
Take H-DTHFPICIAGPRSKGWVCM-NH2 (cysteine pairing not given here) [Compound 67]: the “Potency EC50” value stood at 2470 nM.
Same read-out and setting: in the case of H-DTHFPICIFAPRSKGWVCM-NH2 (cysteine pairing not given here) [Compound 22] it was 9430 nM; in that of H-DTHFPICIFGPRSKGAVCM-NH2 (cysteine pairing not given here) [Compound 66], 520 nM.
Regarding H-DTHFPICIFGPRSKAWVCM-NH2 (cysteine pairing not given here) [Compound 31], the “Potency EC50” value is 175 nM.
On the same count and under the same terms, in the case of H-DTHFAICIFGPRSKGWVCM-NH2 (cysteine pairing not given here) [Compound 26] it was 147 nM; in that of H-DTHFPICIFGPRSKGWACM-NH2 (cysteine pairing not given here) [Compound 47], 313 nM.
Regarding H-DTHFPICAFGPRSKGWVCM-NH2 (cysteine pairing not given here) [Compound 68], the “Potency EC50 (nM)” value is over 10000 nM.
On to H-DTHAPICIFGPRSKGWVCM-NH2 (cysteine pairing not given here) [Compound 38], for which the “Potency EC50” value stood at 254 nM.
As for H-DTHFPICIFGPRSKGWVCM-NH2 (not fully specified (bridges); cysteine pairing not given here) [Compound 18], the “Potency EC50” value is 125 nM.
On to H-DTHFPICIFGPRAKGWVCM-NH2 (cysteine pairing not given here) [Compound 28], for which the “Potency EC50” value worked out at 88 nM.
Same read-out and setting: to H-DTAFPICIFGPRSKGWVCM-NH2 (cysteine pairing not given here) [Compound 60] belongs 498 nM; to H-DTHFPICIFGPHRSKGWVCM-NH2 (cysteine pairing not given here) [Compound 27], 149 nM.
The same measure, in the same setting: to H-DTHFPCIAF-NH2 [Compound 51] belongs 382 nM; to H-DAHFPCIIF-NH2 [Compound 52], 388 nM; to H-DTHFPCIIFK-NH2 [Compound 55], 419 nM.

The target in a further experiment is T2, human ferroportin (SLC40A1) fused in …. The experiment can be described thus: cell-based or functional assay.
As to Isovaleryl-DTHFPCIKFEPK([γGlu-Palmitoyl])SKGCK-NH2 (not fully specified (bridges); cysteine pairing not given here) [Compound 220], the “Potency EC50” value amounted to 5 nM.
Take Isovaleryl-DTHFPCIKFEPK([γGlu-Palmitoyl])SKGWECK-NH2 (not fully specified (bridges); cysteine pairing not given here) [Compound 242]: the “Potency EC50” value is 8 nM.
Still for that read-out and setting: in the case of DTHFPCIKFKPRSKGWVC (N-terminal isovaleric acid; K10(mysteric acid); C-terminal NH2) [Compound 247] it was 7 nM.
Same read-out and setting: in the case of B1 it was 10 nM; in that of Isovaleryl-DTHAPCIKFGPRSKGWVCK-NH2 (not fully specified (bridges); cysteine pairing not given here) [Compound 236], over 500 nM; in that of Isovaleryl-DTHFPCIKAGPRSKGWVCK-NH2 (not fully specified (bridges); cysteine pairing not given here) [Compound 237], 50 nM.
For the molecule Isovaleryl-DTHFPCIKFEPRSKK([γGlu-Palmitoyl])CK-NH2 (not fully specified (bridges); cysteine pairing not given here) [Compound 222], the “Potency EC50” value amounted to 4 nM.
The same measure, in the same setting: in the case of B2 it was 7 nM; in that of Isovaleryl-ATHFPCIKFGPRSKGWVCK-NH2 (not fully specified (bridges); cysteine pairing not given here) [Compound 234], 60 nM.
B3: the “Potency EC50” value is 17 nM.
The same measure, in the same setting: to B4 belongs 10 nM.
Turning to B5, the “Potency EC50” value was determined as 4 nM.
On the same count and under the same terms, to B6 belongs 6 nM.
